In publication PMC10243135:
Read-outs that look alike come from different tables or passages of the source.

B1: sepX-2 promoter (cryo-EM, RPo-2) (dsDNA)
DNA 1: GTGATATCAGCCAGATCGTGCGACACACCGGGCCAATTGGCTTGACACC
DNA 2: GGTGTCAAGCCAATTGGCCCGGTGTGTCGCACGATCTGGCTGATATCAC
B2: sepX promoter (cryo-EM, RPo) (dsDNA)
DNA 1: GTGATATCAGCCAGATCGTGCGACACACCGGGCCAATTGGCCGATGCCGTCCCGCGAACCCCTCTACCGTGTGAGGCGTGAGCAGCAGCGGCCTCATCGC
DNA 2: GCGATGAGGCCGCTGCTGCTCACGCCTCACACGGTAGAGGGGTTCGCGGGACGGCATCGGCCAATTGGCCCGGTGTGTCGCACGATCTGGCTGATATCAC

Assays:
[1] = target: T1, WhiA;WhiB;sigmaA (sigma HrdB);RbpA;RNA polymerase core (alpha2 beta beta' omega) (Streptomyces venezuelae;Streptomyces …, UniProt F2RGQ4;F2R611;F2R7X6;F2RBH1;F2RJV9;F2RIS5;F2RIS6;F2RCK7 …, ||||); assay: cryo-EM
[2] = target: T1, WhiA;WhiB;sigmaA (sigma HrdB);RbpA;RNA …; assay: cryo-EM; remark: listed apart in the source

Row | Binder | binding result [1] | binding result [2]
1 | B1 | binds | –
2 | B2 | – | binds
